# Numbering of substitutions follows the chain as printed.
# T1: BMPRIb receptor-Fc fusion (UniProt O00238 14-126)
# T1 construct: BMP receptor-Fc fusion used at 5 ug/mL; also called ALK-6
# T1 sequence (looked up): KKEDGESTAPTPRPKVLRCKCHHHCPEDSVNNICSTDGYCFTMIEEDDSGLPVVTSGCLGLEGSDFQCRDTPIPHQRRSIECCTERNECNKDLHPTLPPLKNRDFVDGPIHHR
# T2: BMPRII receptor-Fc fusion (UniProt Q13873 27-151, limits assumed)
# T2 construct: BMP receptor-Fc fusion used at 5 ug/mL
# T2 sequence (looked up): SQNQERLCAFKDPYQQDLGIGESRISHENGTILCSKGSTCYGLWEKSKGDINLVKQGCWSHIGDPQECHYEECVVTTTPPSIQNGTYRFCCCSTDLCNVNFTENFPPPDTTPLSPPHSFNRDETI
# B1: BMP-7 variant K126Q (ligand)
# chain: STGGKQRSQNRSKTPKNQEALRMASVAENSSSDQRQACKKHELYVSFRDLGWQDWIIAPEGYAAYYCEGECAFPLNSYMNATNHAIVQTLVHFINPETVPKPCCAPTQLNAISVLYFDDSSNVILQKYRNMVVRACGCH
# notes: In conditioned media; numbering on mature BMP-7
# B2: BMP-7 variant Q53S (ligand)
# chain: B1 chain with Q53S, Q126K
# notes: as for B1
# B3: BMP-7 variant Q53D (ligand)
# chain: B1 chain with Q53D, Q126K
# notes: as for B1
# B4: BMP-7 variant L21R (ligand)
# chain: B1 chain with L21R, Q126K
# notes: as for B1
# B5: BMP-7 variant R129K (ligand)
# chain: B1 chain with Q126K, R129K
# notes: as for B1
# B6: BMP-7 variant L90P (ligand)
# chain: B1 chain with L90P, Q126K
# notes: as for B1
# B7: BMP-7 variant Q53K (ligand)
# chain: B1 chain with Q53K, Q126K
# notes: as for B1
# B8: BMP-7 variant L21G (ligand)
# chain: B1 chain with L21G, Q126K
# notes: as for B1
# B9: BMP-7 variant R48N (ligand)
# chain: B1 chain with R48N, Q126K
# notes: as for B1
# B10: BMP-7 variant R129N (ligand)
# chain: B1 chain with Q126K, R129N
# notes: as for B1
# B11: BMP-7 variant N76S (ligand)
# chain: B1 chain with N76S, Q126K
# notes: as for B1
# B12: BMP-7 variant L90G (ligand)
# chain: B1 chain with L90G, Q126K
# notes: as for B1
# B13: BMP-7 variant N76A (ligand)
# chain: B1 chain with N76A, Q126K
# notes: as for B1
# B14: BMP-7 variant L90H (ligand)
# chain: B1 chain with L90H, Q126K
# notes: as for B1
# B15: BMP-7 variant Q53R (ligand)
# chain: B1 chain with Q53R, Q126K
# notes: as for B1
# B16: BMP-7 variant M23N (ligand)
# chain: B1 chain with M23N, Q126K
# notes: as for B1
# B17: BMP-7 variant R129D (ligand)
# chain: B1 chain with Q126K, R129D
# notes: as for B1
# B18: BMP-7 variant R48Q (ligand)
# chain: B1 chain with R48Q, Q126K
# notes: as for B1
# B19: BMP-7 variant Q53G (ligand)
# chain: B1 chain with Q53G, Q126K
# notes: as for B1
# B20: BMP-7 variant M23S (ligand)
# chain: B1 chain with M23S, Q126K
# notes: as for B1
# B21: BMP-7 variant N76T (ligand)
# chain: B1 chain with N76T, Q126K
# notes: as for B1
# B22: BMP-7 variant Q53E (ligand)
# chain: B1 chain with Q53E, Q126K
# notes: as for B1
# B23: BMP-7 variant N76D (ligand)
# chain: B1 chain with N76D, Q126K
# notes: as for B1
# B24: BMP-7 variant R129S (ligand)
# chain: B1 chain with Q126K, R129S
# notes: as for B1
# B25: BMP-7 variant L21D (ligand)
# chain: B1 chain with L21D, Q126K
# notes: as for B1
# B26: BMP-7 variant L21N (ligand)
# chain: B1 chain with L21N, Q126K
# notes: as for B1
# B27: BMP-7 variant L90E (ligand)
# chain: B1 chain with L90E, Q126K
# notes: as for B1
# B28: BMP-7 variant N76Y (ligand)
# chain: B1 chain with N76Y, Q126K
# notes: as for B1
# B29: BMP-7 variant L90T (ligand)
# chain: B1 chain with L90T, Q126K
# notes: as for B1
# B30: BMP-7 variant R48H (ligand)
# chain: B1 chain with R48H, Q126K
# notes: as for B1
# Experiments:
# Assay in all cases: ELISA-like plate assay, captured BMP-7 from conditioned media, receptor-Fc detection
# [1] = target: T1, BMPRIb receptor-Fc fusion
# [2] = target: T3, ActRIIa receptor-Fc fusion (UniProt P27037 20-134, limits assumed)
# T3 construct: BMP receptor-Fc fusion used at 5 ug/mL
# [3] = target: T2, BMPRII receptor-Fc fusion
# [4] = target: T4, BMPRIa receptor-Fc fusion (UniProt P36894 24-152, limits assumed)
# T4 construct: also called ALK-3
# T4 sequence (P36894 24-152 limits assumed): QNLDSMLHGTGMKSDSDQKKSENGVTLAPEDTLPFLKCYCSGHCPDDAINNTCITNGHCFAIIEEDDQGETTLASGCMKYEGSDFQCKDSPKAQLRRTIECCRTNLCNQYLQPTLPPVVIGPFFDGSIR
# T3 sequence (P27037 20-134 limits assumed): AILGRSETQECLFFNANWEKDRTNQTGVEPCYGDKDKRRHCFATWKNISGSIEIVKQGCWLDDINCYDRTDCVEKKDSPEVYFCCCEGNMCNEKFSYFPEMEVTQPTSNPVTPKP
BMPRIb binding (relative to wild type = 1.0) [1],ActRIIa binding (relative to wild type = 1.0) [2],BMPRII binding (relative to wild type = 1.0) [3],BMPRIa binding (relative to wild type = 1.0) [4],Binder
0.57 relative to wild type,0.81 relative to wild type,0.28 relative to wild type,0.46 relative to wild type,B1
0.68 relative to wild type,1.04 relative to wild type,1.26 relative to wild type,0.66 relative to wild type,B2
3.74 relative to wild type,0.89 relative to wild type,1.01 relative to wild type,2.2 relative to wild type,B3
1.01 relative to wild type,0.84 relative to wild type,0.66 relative to wild type,0.83 relative to wild type,B4
0.77 relative to wild type,1.12 relative to wild type,0.78 relative to wild type,0.69 relative to wild type,B5
0.52 relative to wild type,0.75 relative to wild type,0.17 relative to wild type,0.46 relative to wild type,B6
2.03 relative to wild type,0.73 relative to wild type,0.14 relative to wild type,0.7 relative to wild type,B7
3.65 relative to wild type,1.5 relative to wild type,2.3 relative to wild type,2.53 relative to wild type,B8
0.43 relative to wild type,0.93 relative to wild type,0.13 relative to wild type,1.87 relative to wild type,B9
1.03 relative to wild type,1.1 relative to wild type,1.4 relative to wild type,0.89 relative to wild type,B10
0.85 relative to wild type,0.99 relative to wild type,0.98 relative to wild type,0.76 relative to wild type,B11
0.65 relative to wild type,0.87 relative to wild type,0.28 relative to wild type,0.55 relative to wild type,B12
0.81 relative to wild type,0.96 relative to wild type,0.95 relative to wild type,0.79 relative to wild type,B13
0.55 relative to wild type,0.47 relative to wild type,0.2 relative to wild type,0.36 relative to wild type,B14
1.41 relative to wild type,0.81 relative to wild type,0.96 relative to wild type,1.26 relative to wild type,B15
1.36 relative to wild type,0.94 relative to wild type,0.9 relative to wild type,0.98 relative to wild type,B16
1.16 relative to wild type,1.13 relative to wild type,1.86 relative to wild type,0.93 relative to wild type,B17
0.85 relative to wild type,0.8 relative to wild type,0.15 relative to wild type,1.06 relative to wild type,B18
3.95 relative to wild type,0.99 relative to wild type,1.37 relative to wild type,3.7 relative to wild type,B19
1.09 relative to wild type,2.2 relative to wild type,2.41 relative to wild type,0.88 relative to wild type,B20
0.98 relative to wild type,1.11 relative to wild type,0.97 relative to wild type,0.94 relative to wild type,B21
2.78 relative to wild type,0.98 relative to wild type,0.72 relative to wild type,2.3 relative to wild type,B22
0.8 relative to wild type,1.13 relative to wild type,0.87 relative to wild type,0.84 relative to wild type,B23
0.37 relative to wild type,0.62 relative to wild type,0.26 relative to wild type,0.32 relative to wild type,B24
1.52 relative to wild type,0.94 relative to wild type,0.94 relative to wild type,1.01 relative to wild type,B25
2.81 relative to wild type,1.03 relative to wild type,1.73 relative to wild type,1.57 relative to wild type,B26
0.27 relative to wild type,0.24 relative to wild type,0.18 relative to wild type,0.2 relative to wild type,B27
0.46 relative to wild type,0.92 relative to wild type,0.6 relative to wild type,0.46 relative to wild type,B28
0.64 relative to wild type,0.66 relative to wild type,0.29 relative to wild type,0.48 relative to wild type,B29
3.58 relative to wild type,1.02 relative to wild type,0.58 relative to wild type,3.15 relative to wild type,B30

# Reference: patent US20060058231A1 (Xencor, published 2006)
